Patent publication US20260224721A1, “ANTI-CD70 ANTIBODY-DRUG CONJUGATES” (Ambrx, Inc., priority 2023, published 2026)
Square brackets hold non-standard residues; d marks the D form. Peptide text beside a SMILES is read from it. * marks the point of attachment. Dolaproine = CO[C@@H]([C@@H]1CCCN1)[C@@H](C)C(=O)O; Dil = CC[C@H](C)[C@H](NC)[C@@H](CC(=O)O)OC; X1 = CC(C)[C@@H](C(=O)*)N(C)CCOCCOCCOCCON; X2 = C[C@@H](N*)[C@@H](O)c1ccccc1; NMeV = CN[C@H](C(=O)O)C(C)C

Key:
MDR/P-gp [1] = target: T1, MDR/P-gp (Homo sapiens, UniProt P08183); conditions: cited from earlier work
BCRP = target: T2, BCRP (Homo sapiens, UniProt Q9UNQ0); test: BCRP substrate assessment; format: in vitro ADME; conditions: data not shown
T2 sequence (Q9UNQ0 1-655): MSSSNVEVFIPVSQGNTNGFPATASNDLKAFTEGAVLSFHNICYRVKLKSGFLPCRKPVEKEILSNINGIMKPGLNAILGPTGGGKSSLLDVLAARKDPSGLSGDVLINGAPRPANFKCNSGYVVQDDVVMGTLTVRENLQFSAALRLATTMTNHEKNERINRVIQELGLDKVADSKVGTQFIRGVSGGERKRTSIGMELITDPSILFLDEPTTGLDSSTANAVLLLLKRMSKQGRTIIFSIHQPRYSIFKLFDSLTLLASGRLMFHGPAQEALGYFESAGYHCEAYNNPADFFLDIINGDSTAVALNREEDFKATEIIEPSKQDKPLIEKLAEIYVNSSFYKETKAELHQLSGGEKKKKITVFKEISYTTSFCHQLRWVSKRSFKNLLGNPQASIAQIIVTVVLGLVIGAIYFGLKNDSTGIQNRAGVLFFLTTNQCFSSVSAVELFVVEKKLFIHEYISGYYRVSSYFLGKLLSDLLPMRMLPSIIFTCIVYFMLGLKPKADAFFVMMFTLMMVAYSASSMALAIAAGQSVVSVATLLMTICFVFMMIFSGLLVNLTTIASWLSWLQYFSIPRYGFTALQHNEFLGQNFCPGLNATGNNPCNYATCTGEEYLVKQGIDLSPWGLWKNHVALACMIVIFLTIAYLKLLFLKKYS

MDR/P-gp [2] = target: T1, MDR/P-gp; test: MDR pump substrate assessment; format: in vitro ADME; conditions: data not shown
[3] = system: 786-OS3 renal carcinoma cells; test: 786-OS3/PBMC renal cell carcinoma xenograft model, ARX305 and pembrolizumab; format: in vivo, NCG mice; conditions: study day 36, 5.0 mg/kg dose of pembrolizumab alone, IP QW × 4
Procedure: ARX305 in combination with a checkpoint inhibitor, such as a PD-1/PD-L1 inhibitor, were tested in a renal cell carcinoma (RCC) model. For RCC, ARX305 in combination of pembrolizumab (PD-1 inhibitor) were evaluated in a cell line-derived xenograft tumor model: 786-OS3.
Female NCG mice were housed five (5) per cage in a pathogen-free, limited access room. Food and water were provided ad libitum. Mice were subcutaneously inoculated in the right flank with 5×10^6 786-OS3 renal carcinoma cells mixed with Matrigel. Tumor volumes were measured twice weekly. When tumors reached from about 175 mm^3 to about 200 mm^3 in size, mice were randomized into five (5) groups of 10 mice with approximately equal average tumor volumes. Cryopreserved peripheral blood mononuclear cells (PBMCs) from a single healthy donor were thawed and cultured in Roswell Park Memorial Institut (RPMI) medium+10% fetal bovine serum at 37° C. for 24 hours. PBMCs were harvested and intraperitoneally injected into tumor-bearing mice (10^7/mouse). After 24 hours, mice were injected with vehicle, pembrolizumab (5 mg/kg), ARX305 (0.3 mg/kg), or pembrolizumab (5 mg/kg)+ARX305 (0.3 mg/kg). Dosing was repeated for pembrolizumab weekly for a total of 4 doses and ARX305 every other week for a total of 2 doses. […] Tumor volumes were continually measured twice weekly and FIG. 15 show mean tumor volumes +/−SEM for each group.

cynomolgus CD70 protein [4] = target: T3, cynomolgus CD70 protein (cynomolgus, UniProt A0A2K5WTU9 39-190); test: SPR (Biacore), ADC captured by anti-human IgG (Fc) on CM5 chip, CD70 as analyte, 1:1 fit
T3 construct: SPR analyte; construct not described
T3 sequence: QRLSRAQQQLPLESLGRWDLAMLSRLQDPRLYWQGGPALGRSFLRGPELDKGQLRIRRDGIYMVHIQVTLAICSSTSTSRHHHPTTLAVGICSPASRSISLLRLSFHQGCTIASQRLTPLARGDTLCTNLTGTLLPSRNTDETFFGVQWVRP
Procedure: (§1) Surface plasmon resonance assays were developed in which anti-human IgG (Fc) was diluted to 25 μg/mL in immobilization buffer ([…] Sodium Acetate, pH 5.0) and injected to an activated CM5 sensor chip for 360 seconds at a flow rate of 10 μL/minute. […] After each cycle of interaction analysis, the sensor chip surface was regenerated with 3M magnesium chloride at a flow rate of 20 uL/minute for 30 seconds. Affinity analysis was performed using Biacore Insight Evaluation software, reference channel was used for background subtraction, and a 1:1 binding method was used for curve fitting.

human CD70 protein = target: T4, human CD70 protein (human, UniProt P32970 39-193); test: SPR
T4 chain: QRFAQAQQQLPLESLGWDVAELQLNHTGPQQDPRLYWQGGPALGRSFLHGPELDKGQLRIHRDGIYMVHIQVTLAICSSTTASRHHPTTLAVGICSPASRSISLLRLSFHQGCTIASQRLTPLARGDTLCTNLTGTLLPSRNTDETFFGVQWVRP

cynomolgus CD70 protein [5] = target: T5, cynomolgus CD70 protein (cynomolgus, UniProt A0A2K5WTU9 39-190); test: SPR
T5 chain: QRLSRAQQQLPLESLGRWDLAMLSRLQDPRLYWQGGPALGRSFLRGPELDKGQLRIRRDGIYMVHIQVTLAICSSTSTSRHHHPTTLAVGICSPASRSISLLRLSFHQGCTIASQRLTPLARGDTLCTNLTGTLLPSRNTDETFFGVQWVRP

[6] = target: T6, CD70 on the surface of human tumor cell lines (human, UniProt P32970 1-193); test: cell-based or functional assay
T6 sequence (looked up): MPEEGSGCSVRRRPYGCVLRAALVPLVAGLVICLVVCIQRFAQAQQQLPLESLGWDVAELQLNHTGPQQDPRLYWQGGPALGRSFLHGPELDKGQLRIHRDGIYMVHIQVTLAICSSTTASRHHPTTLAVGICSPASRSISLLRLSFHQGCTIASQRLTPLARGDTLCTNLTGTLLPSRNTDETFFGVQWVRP

mouse CD70 protein = target: T7, mouse CD70 protein (mouse, UniProt O55237 45-195, limits assumed); test: SPR (Biacore), ADC captured by anti-human IgG (Fc) on CM5 chip, CD70 as analyte
T7 construct: SPR analyte; construct not described; also called rodent CD70
T7 sequence (looked up): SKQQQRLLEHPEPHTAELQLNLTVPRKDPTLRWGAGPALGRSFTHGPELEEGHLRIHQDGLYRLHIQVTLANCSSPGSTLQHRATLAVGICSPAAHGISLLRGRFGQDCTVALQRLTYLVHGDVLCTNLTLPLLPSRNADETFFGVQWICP
Procedure: as §1

T1 sequence (P08183 whole entry): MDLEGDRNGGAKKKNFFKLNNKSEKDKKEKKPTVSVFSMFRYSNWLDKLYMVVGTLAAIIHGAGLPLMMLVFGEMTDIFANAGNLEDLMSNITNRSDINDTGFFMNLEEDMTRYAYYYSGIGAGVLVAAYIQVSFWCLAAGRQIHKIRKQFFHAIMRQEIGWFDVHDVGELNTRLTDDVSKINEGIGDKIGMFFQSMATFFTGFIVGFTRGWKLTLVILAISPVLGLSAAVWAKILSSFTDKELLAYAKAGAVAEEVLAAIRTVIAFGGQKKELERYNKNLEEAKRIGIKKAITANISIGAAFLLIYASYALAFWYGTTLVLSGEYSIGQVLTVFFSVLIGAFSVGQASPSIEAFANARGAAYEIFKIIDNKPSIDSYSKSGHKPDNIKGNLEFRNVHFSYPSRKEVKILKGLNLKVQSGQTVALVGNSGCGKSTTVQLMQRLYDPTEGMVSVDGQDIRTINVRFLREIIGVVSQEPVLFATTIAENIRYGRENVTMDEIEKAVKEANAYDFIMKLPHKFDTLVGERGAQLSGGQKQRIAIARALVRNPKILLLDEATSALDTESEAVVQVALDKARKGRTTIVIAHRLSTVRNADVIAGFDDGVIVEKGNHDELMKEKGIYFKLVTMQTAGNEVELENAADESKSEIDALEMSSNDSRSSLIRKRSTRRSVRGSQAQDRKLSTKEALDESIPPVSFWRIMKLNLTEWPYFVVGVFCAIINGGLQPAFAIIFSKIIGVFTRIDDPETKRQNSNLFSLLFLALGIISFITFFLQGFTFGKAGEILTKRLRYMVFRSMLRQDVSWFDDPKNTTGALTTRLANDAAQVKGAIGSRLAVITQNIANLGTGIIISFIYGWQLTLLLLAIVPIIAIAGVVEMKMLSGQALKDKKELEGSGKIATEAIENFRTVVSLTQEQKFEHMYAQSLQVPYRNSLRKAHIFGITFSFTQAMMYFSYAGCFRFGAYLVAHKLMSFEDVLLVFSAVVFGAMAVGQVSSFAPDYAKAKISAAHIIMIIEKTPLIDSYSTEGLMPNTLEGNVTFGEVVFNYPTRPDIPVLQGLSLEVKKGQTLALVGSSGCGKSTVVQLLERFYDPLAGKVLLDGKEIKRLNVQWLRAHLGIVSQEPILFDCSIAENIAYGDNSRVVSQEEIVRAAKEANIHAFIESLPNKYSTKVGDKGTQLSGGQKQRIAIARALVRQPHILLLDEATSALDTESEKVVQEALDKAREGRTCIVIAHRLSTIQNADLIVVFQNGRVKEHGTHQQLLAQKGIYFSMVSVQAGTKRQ

For `CC[C@H](C)[C@@H]([C@@H](CC(=O)N1CCC[C@H]1[C@H](OC)[C@@H](C)C(=O)N[C@H](C)[C@@H](O)c1ccccc1)OC)N(C)C(=O)[C@@H](NC(=O)[C@@H](NC)C(C)C)C(C)C` [MMAE, Monomethyl auristatin E] (H-[NMeV]V[Dil][Dolaproine]-X2), the “substrate for MDR pumps” value (MDR/P-gp [1]) is given as “known substrate”.

For `CC[C@H](C)[C@@H]([C@@H](CC(=O)N1CCC[C@H]1[C@H](OC)[C@@H](C)C(=O)N[C@@H](Cc1ccccc1)C(=O)O)OC)N(C)C(=O)[C@@H](NC(=O)[C@H](C(C)C)N(C)CCOCCOCCOCCON)C(C)C` [AS269, ((2R,3R)-3-((S)-1-((3R,4S,5S)-4-((S)-2-((S)-14-(aminooxy)-2-isopropyl-3-methyl-6,9,12-trioxa-3-azatetradecanamido)-N,3-dimethylbutanamido)-3-methoxy-5-methylheptanoyl)pyrrolidin-2-yl)-3-methoxy-2-methylpropanoyl)-L-phenylalanine] (X1-V[Dil][Dolaproine]F-OH), the “substrate for BCRP” value (BCRP) was “not a substrate” and the “substrate for MDR/P-gp” value (MDR/P-gp [2]) was “not a substrate”.

For “pembrolizumab: PD-1 inhibitor [reference compound]”, the “tumor growth inhibition (TGI)” value [3] was 6%.

B1: anti-CD70-AS269 ADC (antibody, human IgG1, kappa, V domains shown)
VH: EVQLVQSGAEVKKPGATVKISCKVSGYTFTDYYMNWVQQAPGKGLEWMGIINPYNGGTHYNQKFKGRVTITADTSTDTAYMELSSLRSEDTAVYYCATSGYDLYFDYWGQGTLVTVSS
VL: EIVMTQSPATLSVSPGERATLSCKASQNVGTAVAWYQQKPGQAPRLLIYSAFNRYNGIPARFSGSGPGTDFTLTISSLQSEDFAVYYCQQYSTYPLTFGGGTKVEIKR
modifications: para-acetyl-L-phenylalanine (pAF) at position 114 (Kabat numbering; the X of SEQ ID NO: 3), carrying drug-linker AS269 via an oxime bond
notes: Antibody-drug conjugate: humanized IgG1 mAb with one AS269 drug-linker per heavy chain, DAR about 2; also called ARX305; aCD70-AS269
For B1, the “fold difference of affinity between human and cynomolgus CD70” value (cynomolgus CD70 protein [4]) was no more than 3 fold, the Kd (human CD70 protein) was 0.228 nM and the Kd (cynomolgus CD70 protein [5]) was 0.684 nM. For the same molecule, the “Cytotoxic Potency (IC50, nM), 786-O cells (CD70 surface expression 133,000)” value [6] was 0.167 nM, the “Cytotoxic Potency (IC50, nM), C666-1 cells (CD70 surface expression 9,200)” value [6] was greater than 10 nM and the “Cytotoxic Potency (IC50, nM), Caki-1 cells (CD70 surface expression 107,000)” value [6] was 0.125 nM. The “Cytotoxic Potency (IC50, nM), Hs 611.T cells (CD70 surface expression 6,600)” value [6] was greater than 10 nM, the “Cytotoxic Potency (IC50, nM), Hs766T cells (CD70 surface expression 9,500)” value [6] was greater than 10 nM and the “Cytotoxic Potency (IC50, nM), KMS11 cells (CD70 surface expression 9,400)” value [6] was greater than 10 nM. The “Cytotoxic Potency (IC50, nM), NCI-H40 cells (CD70 surface expression 14,900)” value [6] was 0.18 nM, the “Cytotoxic Potency (IC50, nM), NCI-H929 cells (CD70 surface expression 0)” value [6] was greater than 10 nM and the “Cytotoxic Potency (IC50, nM), REC-1 cells (CD70 surface expression 17,300)” value [6] was 0.18 nM. For the same molecule, the “Cytotoxic Potency (IC50, nM), Raji cells (CD70 surface expression 17,700)” value [6] was greater than 10 nM, the “Cytotoxic Potency (IC50, nM), U251MG cells (CD70 surface expression 65,800)” value [6] was 0.04 nM and the “Cytotoxic Potency (IC50, nM), U266 cells (CD70 surface expression 65,000)” value [6] was 0.025 nM. B1: no binding (mouse CD70 protein).
